# According to patent US20040151715A1 (SCHERING, published 2004):
# Positions count from the first letter of the chain named. Numbers in names are those of the source.
# T1: KL-1 peptide (PPVAASSLRN)
# T1 chain: PPVAASSLRN
# T2: TRANCE peptide (VGSQHIRAEK)
# T2 chain: VGSQHIRAEK
# T3: APP peptide (YEVHHQKLVF)
# T3 chain: YEVHHQKLVF
# T4: human ADAM33 pro domain (wild type)
# T4 chain: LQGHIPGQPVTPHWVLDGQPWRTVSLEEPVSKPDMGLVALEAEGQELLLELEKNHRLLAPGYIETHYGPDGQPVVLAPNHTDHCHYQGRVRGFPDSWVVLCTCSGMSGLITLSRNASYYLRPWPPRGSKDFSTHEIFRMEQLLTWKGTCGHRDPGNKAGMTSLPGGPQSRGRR
# T5: MCF substrate peptide (Ac-LPPVAASSLNRD-NH2)
# T5 chain: LPPVAASSLNRD
# T6: insulin B chain peptide (HLVEALYLVC)
# T6 chain: HLVEALYLVC
# T7: human ADAM33 catalytic domain (human, UniProt Q9BZ11 204-409)
# T7 construct: Expressed in Drosophila S2 cells as pre/pro/cat with a C-terminal Ser-Gly-His6 tag and processed at RGRR203/EARR; also called CAT domain; protease domain
# T7 sequence: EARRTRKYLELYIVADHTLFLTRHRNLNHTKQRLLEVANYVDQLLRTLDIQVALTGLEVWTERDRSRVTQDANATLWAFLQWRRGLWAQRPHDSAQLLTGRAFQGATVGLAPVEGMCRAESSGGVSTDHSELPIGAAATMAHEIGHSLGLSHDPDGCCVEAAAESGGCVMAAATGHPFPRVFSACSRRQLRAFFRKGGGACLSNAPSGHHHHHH
# B1: human ADAM33 catalytic domain (protein)
# chain: T7 sequence
# B2: single chain zymogen form of ADAM33 (R203T/R207S) (protein)
# chain: LQGHIPGQPVTPHWVLDGQPWRTVSLEEPVSKPDMGLVALEAEGQELLLELEKNHRLLAPGYIETHYGPDGQPVVLAPNHTDHCHYQGRVRGFPDSWVVLCTCSGMSGLITLSRNASYYLRPWPPRGSKDFSTHEIFRMEQLLTWKGTCGHRDPGNKAGMTSLPGGPQSRGRTEARSTRKYLELYIVADHTLFLTRHRNLNHTKQRLLEVANYVDQLLRTLDIQVALTGLEVWTERDRSRVTQDANATLWAFLQWRRGLWAQRPHDSAQLLTGRAFQGATVGLAPVEGMCRAESSGGVSTDHSELPIGAAATMAHEIGHSLGLSHDPDGCCVEAAAESGGCVMAAATGHPFPRVFSACSRRQLRAFFRKGGGACLSNAP
# B3: human TIMP-3 (tissue inhibitor of metalloproteinases 3) (other, UniProt P35625 24-211, looked up)
# chain: CTCSPSHPQDAFCNSDIVIRAKVVGKKLVKEGPFGTLVYTIKQMKMYRGFTKMPHVQYIHTEASESLCGLKLEVNKYQYLLTGRVYDGKMYTGLCNFVERWDQLTLSQRKGLNYRYHLGCNCKIKSCYYLPCFVTSKNECLWTDMLSNFGYPGYQSKHYACIRQKGGYCSWYRGWAPPDKSIINATDP
# B4: human TIMP-4 (tissue inhibitor of metalloproteinases 4) (other, UniProt Q99727 30-224, looked up)
# chain: CSCAPAHPQQHICHSALVIRAKISSEKVVPASADPADTEKMLRYEIKQIKMFKGFEKVKDVQYIYTPFDSSLCGVKLEANSQKQYLLTGQVLSDGKVFIHLCNYIEPWEDLSLVQRESLNHHYHLNCGCQITTCYTVPCTISAPNECLWTDWLLERKLYGYQAQHYVCMKHVDGTCSWYRGHLPLRKEFVDIVQP
# B5: human ADAM33 pro domain C131A (other)
# chain: T4 chain with C101A
# notes: The whole pro/cat entry is named; The protein was processed at the pro-CAT junction, so only the part before EARR is the pro domain
# B6: human ADAM33 pro domain C131A/C179A (other)
# chain: T4 chain with C101A, C149A
# notes: as for B5
# B7: human ADAM33 pro domain C179A (other)
# chain: T4 chain with C149A
# notes: as for B5
# Experiments:
# [1] = biological target: T1, KL-1 peptide (PPVAASSLRN)
# [2] = biological target: T2, TRANCE peptide (VGSQHIRAEK)
# APP peptide (YEVHHQKLVF) = biological target: T3, APP peptide (YEVHHQKLVF)
# [3] = biological target: T4, human ADAM33 pro domain (wild type)
# [4] = biological target: T5, MCF substrate peptide …
# [5] = biological target: T6, insulin B chain peptide (HLVEALYLVC)
# [6] = biological target: T7, human ADAM33 catalytic domain; assay: HPLC assay of KL-1 peptide (100 µM) cleavage by ADAM33cat (80 nM), TIMP pre-incubated 1 h at RT; Morrison tight-binding fit (Ki app)
# Method: (§1) The inhibition dissociation constants (Kᵢ) for inhibitors were determined as follows: an HPLC assay was performed in the presence or absence of inhibitors for 2 h at RT using ADAM33cat (80 nM) and KL-1 peptide substrate (100 μM). For testing tissue inhibitor of metalloproteinases (TIMPs), ADAM33 and human TIMPs were pre-incubated for 1 h at RT. Serial dilutions of TIMPs or synthetic inhibitors were tested starting at 4 μM (TIMP-2, -3, 4), 2 μM (TIMP-1, IK682), 20 μM (Marimastat), or 200 μM (Immunex compound 1: N-{DL-[2-(hydroxyamino-carbonyl)methyl]4-methylpentanoyl}-L-3-(tertbutyl)glycyl-L-alanine,2-aminoethylamide). Initial velocities were calculated by dividing cleaved product over reaction time. The initial velocities were plotted as a function of inhibitor concentration. For tight binding inhibitors (IK682, TIMP-3), the apparent inhibitor dissociation constants (Kᵢ app values) were calculated by fitting the curve to the following modified Morrison's equation: […]
# (§2) The cleavage of the KL-1 peptide by ADAM33 was used to evaluate the effect of different classes of protease inhibitors. Inhibition constants of several hydroxamate compounds, known to inhibit either ADAM17 [IK682, and the Immunex compound 1] or MMPs [Marimastat], were determined. […] Human TIMP-1, -2, -3 and -4, endogenous inhibitors of MMPs and ADAMs, were tested for inhibition of ADAM33 activity.
# [7] = biological target: T7, human ADAM33 catalytic domain; assay: HPLC assay of KL-1 peptide (100 µM) cleavage by ADAM33cat (80 nM), TIMP pre-incubated 1 h at RT; competitive inhibition fit
# Method: as §1, §2
# [8] = biological target: T7, human ADAM33 catalytic domain; assay: co-purification during chromatography; heterodimer not disrupted by APMA and/or detergents
binder,measurement,setting,value
B1,Km,[1],3000 ± 100 µM
same,kcat,[1],0.7 ± 0.1 s⁻¹
same,kcat/Km,[1],(2.6±0.5)×10^2 M^-1 s^-1 (n=3)
same,peptide cleavage (HPLC; site by MALDI-TOF MS),[1],ADAM33 cleaved the ... KL-1 peptide at A * S
same,peptide cleavage (HPLC; site by MALDI-TOF MS),[2],ADAM33 cleaved the ... human TRANCE peptide at H * I
same,Km,APP peptide (YEVHHQKLVF),1000 ± 100 µM
same,kcat,APP peptide (YEVHHQKLVF),0.2 ± 0.1 s⁻¹
same,kcat/Km,APP peptide (YEVHHQKLVF),(1.6±0.3)×10^2 M^-1 s^-1 (n=2)
same,peptide cleavage (HPLC; site by MALDI-TOF MS),APP peptide (YEVHHQKLVF),ADAM33 cleaved the APP peptide at H * Q
same,"catalytic efficiency of the pro/CAT complex on the MCF peptide, tested at 50 nM-1 µM",[3],comparable to that of the CAT domain
same,Km,[4],suggesting a Km value greater than the highest tested concentration (500 µM)
same,catalytic efficiency (kcat/Km),[4],2.6±0.5)×10^2 M^-1 s^-1
same,peptide cleavage (HPLC),[4],The wild-type ADAM33 cleaved the peptide between the residues corresponding to Ala-190 and Ser-191
same,peptide cleavage (HPLC; site by MALDI-TOF MS),[5],ADAM33 cleaved the ... insulin B chain peptide at A * L
B2,catalytic efficiency on the MCF peptide,[4],showed no significant difference to that of the CAT domain
B3,Ki,[6],64 nM
B4,Ki,[7],223 nM
B5,percent of protease domain associated with the pro domain,[8],> 80%
B6,percent of protease domain associated with the pro domain,[8],> 80%
B7,percent of protease domain associated with the pro domain,[8],> 80%
